Measured values published in IntAct's records for PubMed 11069292.

B1: Transcription factor PIF3 (Arabidopsis thaliana (Mouse-ear cress)), O80536 (parent)
chain: MPLFELFRLTKAKLESAQDRNPSPPVDEVVELVWENGQISTQSQSSRSRNIPPPQANSSRAREIGNGSKTTMVDEIPMSVPSLMTGLSQDDDFVPWLNHHPSLDGYCSDFLRDVSSPVTVNEQESDMAVNQTAFPLFQRRKDGNESAPAASSSQYNGFQSHSLYGSDRARDLPSQQTNPDRFTQTQEPLITSNKPSLVNFSHFLRPATFAKTTNNNLHDTKEKSPQSPPNVFQTRVLGAKDSEDKVLNESVASATPKDNQKACLISEDSCRKDQESEKAVVCSSVGSGNSLDGPSESPSLSLKRKHSNIQDIDCHSEDVEEESGDGRKEAGPSRTGLGSKRSRSAEVHNLSERRRRDRINEKMRALQELIPNCNKVDKASMLDEAIEYLKSLQLQVQIMSMASGYYLPPAVMFPPGMGHYPAAAAAMAMGMGMPYAMGLPDLSRGGSSVNHGPQFQVSGMQQQPVAMGIPRVSGGGIFAGSSTIGNGSTRDLSGSKDQTTTNNNSNLKPIKRKQGSSDQFCGSS

Variants of: B1
Conditions: with phyb_arath PHYB

effect of a mutation on the interaction	Variant
decreasing interaction	MPLFELFRLTKAKLESAQDRNPSPPVDEVVELVWENGQISTQSQSSRSRNIPPPQANSSRAREIGNGSKTTMVDEIPMSVPSLMTGLSQDDDFVPWLNHHPSLDGYCSDFLRDVSSPVTVNEQESDMAVNQTAFPLFQRRKDGNESAPAASSSQYNGFQSHSLYVSDRARDLPSQQTNPDRFTQTQEPLITSNKPSLVNFSHFLRPATFAKTTNNNLHDTKEKSPQSPPNVFQTRVLGAKDSEDKVLNESVASATPKDNQKACLISEDSCRKDQESEKAVVCSSVGSGNSLDGPSESPSLSLKRKHSNIQDIDCHSEDVEEESGDGRKEAGPSRTGLGSKRSRSAEVHNLSERRRRDRINEKMRALQELIPNCNKVDKASMLDEAIEYLKSLQLQVQIMSMASGYYLPPAVMFPPGMGHYPAAAAAMAMGMGMPYAMGLPDLSRGGSSVNHGPQFQVSGMQQQPVAMGIPRVSGGGIFAGSSTIGNGSTRDLSGSKDQTTTNNNSNLKPIKRKQGSSDQFCGSS [G165V]
